B1: Rho-related GTP-binding protein RhoE (Mus musculus), P61588 (parent)
chain: MKERRASQKLSSKSIMDPNQNVKCKIVVVGDSQCGKTALLHVFAKDCFPENYVPTVFENYTASFEIDTQRIELSLWDTSGSPYYDNVRPLSYPDSDAVLICFDISRPETLDSVLKKWKGEIQEFCPNTKMLLVGCKSDLRTDVSTLVELSNHRQTPVSYDQGANMAKQIGAATYIECSALQSENSVRDIFHVATLACVNKTNKNVKRNKSQRATKRISHMPSRPELSAVATDLRKDKAKSCTVM

Variants of: B1
Conditions: with rock1_mouse Rock1, P70335
Sequence of rock1_mouse Rock1, P70335 (P70335 whole entry): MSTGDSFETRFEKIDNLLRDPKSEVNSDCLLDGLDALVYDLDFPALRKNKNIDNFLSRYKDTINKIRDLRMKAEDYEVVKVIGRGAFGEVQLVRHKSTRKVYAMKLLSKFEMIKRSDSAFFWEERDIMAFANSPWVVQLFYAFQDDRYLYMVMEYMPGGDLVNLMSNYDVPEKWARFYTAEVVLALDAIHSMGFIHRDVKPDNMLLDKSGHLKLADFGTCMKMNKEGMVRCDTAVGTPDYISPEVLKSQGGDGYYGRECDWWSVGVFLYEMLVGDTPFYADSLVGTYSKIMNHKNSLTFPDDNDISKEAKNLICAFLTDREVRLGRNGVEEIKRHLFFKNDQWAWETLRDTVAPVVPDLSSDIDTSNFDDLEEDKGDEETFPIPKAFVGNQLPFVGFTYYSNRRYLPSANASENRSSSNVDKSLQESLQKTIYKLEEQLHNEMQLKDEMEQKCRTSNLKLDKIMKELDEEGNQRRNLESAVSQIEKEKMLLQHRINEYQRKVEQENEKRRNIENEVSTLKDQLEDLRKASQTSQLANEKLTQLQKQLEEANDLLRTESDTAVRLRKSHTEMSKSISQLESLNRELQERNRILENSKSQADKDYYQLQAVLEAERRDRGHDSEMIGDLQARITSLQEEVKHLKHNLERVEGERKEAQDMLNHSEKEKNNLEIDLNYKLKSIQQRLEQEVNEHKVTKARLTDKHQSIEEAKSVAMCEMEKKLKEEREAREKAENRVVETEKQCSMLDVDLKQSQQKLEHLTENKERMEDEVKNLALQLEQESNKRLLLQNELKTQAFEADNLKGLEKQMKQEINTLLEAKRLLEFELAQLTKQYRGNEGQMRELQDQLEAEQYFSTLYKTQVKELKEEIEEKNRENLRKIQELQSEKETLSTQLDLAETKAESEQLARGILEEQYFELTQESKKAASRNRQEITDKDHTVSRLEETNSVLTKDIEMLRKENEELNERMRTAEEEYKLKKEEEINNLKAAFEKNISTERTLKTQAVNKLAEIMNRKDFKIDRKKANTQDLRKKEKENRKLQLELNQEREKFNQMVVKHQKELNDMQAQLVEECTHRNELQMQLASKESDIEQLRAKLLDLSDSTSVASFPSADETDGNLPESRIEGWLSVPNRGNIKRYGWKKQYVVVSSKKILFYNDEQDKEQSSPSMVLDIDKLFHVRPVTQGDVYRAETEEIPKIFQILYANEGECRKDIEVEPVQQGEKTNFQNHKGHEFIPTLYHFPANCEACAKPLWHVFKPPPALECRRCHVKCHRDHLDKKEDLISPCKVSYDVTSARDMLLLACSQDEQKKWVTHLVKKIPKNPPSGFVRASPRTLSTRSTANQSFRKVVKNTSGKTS

| Variant | effect of a mutation on the interaction |
| --- | --- |
| V192R | disrupting interaction |

Variants of: B1
Conditions: with rock1_mouse Rock1, P70335
Remark: another data set of the same source

| Variant | effect of a mutation on the interaction |
| --- | --- |
| T173R | disrupting interaction |

From IntAct's records for PubMed 18946488
